B1: FAM9B (parent)
chain: EDLTAKRKRMKMDKTCSKTKNKSK
B2: CDC34 (parent)
chain: GGYFKARLKFPIDYPYSPPAFRFL

Variants of: B1
Experiment: protein stability index of a GFP-peptide fusion (GPS, HEK-293T) (PSI 1-6); higher = more stable
Conditions: c terminus: a fixed tail appended
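Further: lentivirally expressed fusions sorted by FACS into six bins by GFP to DsRed ratio, PSI derived from sequencing read proportions per bin multiplied by bin number.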

Protein stability index: each site, then its substitutions
K6: D 5.33; E 5.7; Y 5.19; C 4.78; S 5.26; V 4.65; M 4.67; P 5.59; Q 5.12; N 4.85; F 4.42; W 4.29; G 5.69; T 4.68; H 5.37; L 4.85; A 4.87; R 5.33; I 5.1
E1: N 5.29; Y 3.72; R 4.64; W 3.89; A 4.77; V 4.96; F 4.53; K 4.89; P 4.9; M 4.15; I 4.08; S 5.16; H 4.87; T 4.91; C 3.08; G 4.86; Q 4.99; D 5.32; L 4.38
A5: T 4.51; R 5.23; G 5.47; F 4.42; S 5.5; M 5.2; Q 4.71; L 5.37; Y 5.13; D 5.08; H 5.05; N 4.33; W 5.3; P 4.92; C 4.05; K 4.15
K14: D 5.14; A 4.99; G 5.19; N 5.51; V 5.07; H 5.36; I 3.76; E 5.07; R 5.37; F 4.48; L 4.83; W 4.73; M 5.45; Q 4.99; S 5.03; Y 5.22; P 5.37; C 4.41; T 5.03
L3: F 4.98; M 5.13; Q 5.51; R 5.17; D 5.5; C 5.09; N 5.15; K 5.4; E 5.77; G 5.66; S 4.99; T 5.33; P 5.39; W 4.6; V 5.63; A 4.91; H 5.43; Y 5.23
T4: A 5.25; K 5.54; R 4.64; C 4.52; Q 4.7; V 5.02; F 4.72; I 4.58; E 5; M 4.45; S 4.74; W 4.38; Y 4.21; P 4.96; H 5.29; N 4.8; G 5.14; L 4.6; D 5.5
K11: C 4.9; T 4.49; H 5.38; N 4.45; V 5.08; L 4.62; W 4.83; P 5.16; E 5.29; D 5.22; Y 4.26; G 5.19; S 4.79; Q 5.02; R 4.97; M 4.21; F 5.02; I 4.47; A 5.04
M10: R 5.64; C 5.02; H 5.43; V 5.12; P 4.75; S 5.43; Y 4.94; F 4.88; L 5.34; K 5.31; E 5.43; Q 5.28; N 4.23; I 5.18; G 4.71; W 4.96; T 5.35; A 4.25; D 5.29
K8: E 4.99; Q 3.39; V 5.13; A 4.94; F 4.58; D 5.29; I 4.4; R 5.15; W 4.77; N 5.53; L 4.38; H 4.97; C 5.09; G 4.75; S 5.39; Y 4.33; P 5.5; T 4.97
R9: P 4.4; Q 5.58; K 5.33; G 4.9; T 5.11; C 5.05; A 5.33; M 5.07; H 4.49; I 4.08; Y 5.29; W 4.48; L 4.04; S 5.47; F 5.14; V 5.09; D 5.64; N 5.38; E 5.12
D13: H 4.64; C 4.33; K 4.7; R 4.49; S 4.89; G 5.48; Q 5.41; W 4.8; M 3.91; Y 5.14; L 4.77; I 4.89; E 5.57; T 5.01; N 5.3; A 4.99; F 4.26; P 4.66; V 5.36
T15: M 5.11; V 4.9; P 5; F 4.8; I 5.12; C 5.36; K 4.48; W 4.78; L 5.07; N 5.33; Q 5.42; D 4.91; A 5; R 4.88; G 4.55; S 4.24; H 4.6; E 5.2; Y 5
R7: P 5.27; C 5.26; Q 5.32; D 5.41; S 5.3; W 4.33; N 4.93; V 4.87; I 4.82; H 4.95; L 4.87; M 4.75; Y 5.11; F 4.69; K 5.16; E 5.45; G 5.54; T 5.46; A 5.09
D2: M 4.44; K 4.9; S 4.63; R 4.43; I 4.16; N 4.63; T 4.92; C 4.11; A 5.42; L 4.08; G 5.21; Y 3.69; W 3.49; E 5.3; H 5.01; P 5.51; Q 5.04; F 3.65; V 4.86
M12: D 5.18; E 5.78; S 5.9; N 4.67; L 4.79; A 5.02; Q 5.03; P 5.61; I 5.03; Y 5.16; H 5.44; G 5.76; V 4.45; F 4.95; C 5.06; W 3.86; R 4.72; K 4.79; T 5.54

Variants of: B2
Experiment: as above
Conditions: c terminus: a fixed tail appended

Protein stability index: each site, then its substitutions
F21: T 2.67; W 3.02; V 3.33; Y 1.53
F23: T 2.74; E 2.19; N 2.95; W 1.43; I 2.08; H 4.27; Y 1.26; V 3.6; P 3.15; K 2.8; L 1.54; D 2.71; R 2.42; S 2.95; G 1.09; Q 1.48; M 2.48; A 2.82
L24: A 3.55; W 2.05; D 2.33; R 3.94; E 1.76; K 3.77; V 3.43; N 3.21; G 2.44; M 2.76; T 3.35; Q 2.95; Y 2.4; F 2.89
R22: G 2.78; M 3; Q 2.65; P 2.62; S 2.8; Y 2.7; T 2.52; N 2.73; E 2.58; F 3.63; H 2.87; C 4.57; V 4.1; A 4.99; D 3.74; K 2.74; L 2.97; I 2.74

— the supplement of paper PMC10567573
